Values of other authors in paper PMC5808296.
Like-named read-outs stand apart in the source and are kept apart here.

What was measured:
[1] = target: Aβ42 Aβ1-42 (Mus musculus) (UniProt P12023)
[2] = target: Aβ42 Aβ1-42 (Mus musculus) (UniProt P12023); remark: listed apart in the source

Kd [1] [nM] | Kd [2] [nM] | Substance
0.22 | – | C-IPLPFYN-C peptide
– | 0.545 | C-FRHMTEQ-C peptide
